What was measured:
Assay in all cases: EMSA
BsSpo0J R80A = biological target: T1, BsSpo0J R80A (UniProt P26497 1-282, R80A)
T1 sequence: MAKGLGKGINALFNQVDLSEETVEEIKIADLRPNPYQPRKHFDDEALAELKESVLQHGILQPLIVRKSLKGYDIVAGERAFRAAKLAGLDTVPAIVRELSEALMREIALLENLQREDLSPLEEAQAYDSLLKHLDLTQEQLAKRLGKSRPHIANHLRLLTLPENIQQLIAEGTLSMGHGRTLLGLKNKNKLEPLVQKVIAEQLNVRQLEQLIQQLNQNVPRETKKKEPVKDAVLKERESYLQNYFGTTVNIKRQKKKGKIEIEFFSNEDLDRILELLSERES

BsSpo0J R105A = biological target: T2, BsSpo0J R105A (UniProt P26497 1-282, R105A)
T2 sequence: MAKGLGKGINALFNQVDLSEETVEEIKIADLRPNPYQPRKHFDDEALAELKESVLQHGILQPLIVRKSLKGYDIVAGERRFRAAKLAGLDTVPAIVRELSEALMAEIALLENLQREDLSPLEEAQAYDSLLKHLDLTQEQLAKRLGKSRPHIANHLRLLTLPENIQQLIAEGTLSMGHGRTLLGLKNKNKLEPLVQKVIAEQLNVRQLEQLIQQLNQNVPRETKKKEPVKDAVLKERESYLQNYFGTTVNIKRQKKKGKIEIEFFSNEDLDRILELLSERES

BsSpo0J L60E = biological target: T3, BsSpo0J L60E (UniProt P26497 1-282, L60E)
T3 sequence: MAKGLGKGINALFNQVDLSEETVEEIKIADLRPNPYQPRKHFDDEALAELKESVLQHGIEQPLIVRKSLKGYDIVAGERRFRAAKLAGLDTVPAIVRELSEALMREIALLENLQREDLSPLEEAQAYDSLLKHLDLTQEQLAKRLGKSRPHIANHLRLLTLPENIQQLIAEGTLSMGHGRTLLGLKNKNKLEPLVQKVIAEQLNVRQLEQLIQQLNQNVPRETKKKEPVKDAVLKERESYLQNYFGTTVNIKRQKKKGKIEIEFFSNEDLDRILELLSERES

BsSpo0J F81A = biological target: T4, BsSpo0J F81A (UniProt P26497 1-282, F81A)
T4 sequence: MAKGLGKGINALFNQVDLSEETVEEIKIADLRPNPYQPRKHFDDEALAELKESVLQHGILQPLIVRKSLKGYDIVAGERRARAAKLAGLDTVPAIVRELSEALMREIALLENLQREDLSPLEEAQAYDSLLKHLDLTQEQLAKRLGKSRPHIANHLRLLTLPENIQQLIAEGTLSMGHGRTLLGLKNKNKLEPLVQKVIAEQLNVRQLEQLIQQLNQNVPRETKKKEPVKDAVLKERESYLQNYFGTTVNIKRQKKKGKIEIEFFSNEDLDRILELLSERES

BsSpo0J N112S = biological target: T5, BsSpo0J N112S (UniProt P26497 1-282, N112S)
T5 sequence: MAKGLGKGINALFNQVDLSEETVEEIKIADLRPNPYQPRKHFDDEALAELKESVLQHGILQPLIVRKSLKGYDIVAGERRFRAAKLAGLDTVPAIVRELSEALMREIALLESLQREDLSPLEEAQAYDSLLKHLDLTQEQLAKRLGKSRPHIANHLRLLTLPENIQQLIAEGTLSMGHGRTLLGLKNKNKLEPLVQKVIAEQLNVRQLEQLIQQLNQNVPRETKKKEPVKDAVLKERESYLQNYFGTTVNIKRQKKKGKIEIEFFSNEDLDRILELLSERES

BsSpo0J Q140A = biological target: T6, BsSpo0J Q140A (UniProt P26497 1-282, Q140A)
T6 sequence: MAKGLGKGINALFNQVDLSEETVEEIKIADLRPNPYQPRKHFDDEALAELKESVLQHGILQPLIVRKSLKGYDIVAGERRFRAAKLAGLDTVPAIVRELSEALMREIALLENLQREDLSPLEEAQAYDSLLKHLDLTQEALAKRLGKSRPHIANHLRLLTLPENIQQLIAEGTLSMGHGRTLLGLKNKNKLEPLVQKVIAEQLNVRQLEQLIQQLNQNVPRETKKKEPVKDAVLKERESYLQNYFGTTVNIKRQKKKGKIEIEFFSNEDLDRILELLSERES

BsSpo0J Q61R = biological target: T7, BsSpo0J Q61R (UniProt P26497 1-282, Q61R)
T7 sequence: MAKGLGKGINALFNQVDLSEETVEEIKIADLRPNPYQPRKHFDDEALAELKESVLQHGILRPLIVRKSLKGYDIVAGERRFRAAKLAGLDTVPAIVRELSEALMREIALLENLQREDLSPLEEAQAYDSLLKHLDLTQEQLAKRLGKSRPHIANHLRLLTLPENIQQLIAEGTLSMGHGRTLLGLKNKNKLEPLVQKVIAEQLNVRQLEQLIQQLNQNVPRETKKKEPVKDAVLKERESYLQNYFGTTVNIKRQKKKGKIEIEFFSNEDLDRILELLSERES

BsSpo0J V75A = biological target: T8, BsSpo0J V75A (UniProt P26497 1-282, V75A)
T8 sequence: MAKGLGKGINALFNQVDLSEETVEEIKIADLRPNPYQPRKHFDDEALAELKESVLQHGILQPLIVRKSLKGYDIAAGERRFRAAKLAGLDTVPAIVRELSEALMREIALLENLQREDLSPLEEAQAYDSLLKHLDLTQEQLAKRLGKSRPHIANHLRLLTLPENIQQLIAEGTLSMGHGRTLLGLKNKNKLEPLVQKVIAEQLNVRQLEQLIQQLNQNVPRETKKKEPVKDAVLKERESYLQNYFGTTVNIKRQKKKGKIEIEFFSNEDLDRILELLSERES

BsSpo0J WT = biological target: T9, BsSpo0J WT (UniProt P26497 1-282)
T9 sequence: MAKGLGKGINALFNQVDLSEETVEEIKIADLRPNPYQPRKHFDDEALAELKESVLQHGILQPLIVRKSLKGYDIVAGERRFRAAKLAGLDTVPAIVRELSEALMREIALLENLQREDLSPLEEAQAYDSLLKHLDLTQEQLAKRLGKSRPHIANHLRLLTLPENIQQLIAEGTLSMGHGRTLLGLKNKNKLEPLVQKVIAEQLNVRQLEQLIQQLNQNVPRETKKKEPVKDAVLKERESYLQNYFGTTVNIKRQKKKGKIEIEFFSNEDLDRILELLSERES

Measured: binding result

B1: 24-bp parS (dsDNA)
DNA 1: AGAATGTTCCACGTGAAACAAAGA
DNA 2: TCTTTGTTTCACGTGGAACATTCT
binds: BsSpo0J R80A | BsSpo0J R105A | BsSpo0J L60E | BsSpo0J F81A | BsSpo0J N112S | BsSpo0J Q140A | BsSpo0J Q61R | BsSpo0J V75A | BsSpo0J WT
